The text below walks through data of patent US20250073311A1, “DOSAGE REGIME” (ZEALAND PHARMA A/S, priority 2021, published 2025).

For assay [1], the target named is human glucagon-like peptide 1 receptor (GLP-1R) (human, UniProt P43220). Put plainly: cell-based or functional assay.
Assay [2] concerns the target T1, human GLP-2 receptor (hGLP2-R) (human, UniProt O95838).
T1 sequence: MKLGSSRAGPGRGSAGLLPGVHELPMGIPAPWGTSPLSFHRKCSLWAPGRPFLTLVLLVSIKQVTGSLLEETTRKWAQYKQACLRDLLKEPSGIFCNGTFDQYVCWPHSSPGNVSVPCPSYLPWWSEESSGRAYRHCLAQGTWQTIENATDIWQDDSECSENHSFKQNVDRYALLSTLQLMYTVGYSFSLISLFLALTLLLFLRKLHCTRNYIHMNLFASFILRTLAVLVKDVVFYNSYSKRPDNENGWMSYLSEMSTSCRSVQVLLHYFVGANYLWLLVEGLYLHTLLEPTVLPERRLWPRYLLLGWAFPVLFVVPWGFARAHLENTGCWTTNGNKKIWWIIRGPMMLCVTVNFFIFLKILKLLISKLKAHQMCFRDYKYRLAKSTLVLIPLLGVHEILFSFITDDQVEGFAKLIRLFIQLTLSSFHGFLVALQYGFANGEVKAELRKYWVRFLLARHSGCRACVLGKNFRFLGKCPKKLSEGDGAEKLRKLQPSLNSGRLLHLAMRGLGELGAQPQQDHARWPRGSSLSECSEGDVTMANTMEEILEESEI
Briefly: cell-based or functional assay.

Numbered stars: 1 amine (or outer) side, 2 acyl side, 3 side chain; on linkers, the order of the positions; unused ones are H or OH. Square brackets hold non-standard residues; d marks the D form. Side chains are listed from the residue outwards. * marks the point of attachment. C18 diacid = O=C(O)CCCCCCCCCCCCCCCCC(=O)*; γGlu = O=C(O)[C@H](CCC(=O)[*:2])N[*:1]; Palmitoyl = CCCCCCCCCCCCCCCC(=O)*; Aib = CC(C)(N)C(=O)O; βAla = NCCC(=O)O

B1: Compound 32 (peptide)
peptide: H-H[Aib]EGSFTSELATILDK([βAla-Palmitoyl])QAARDFIAWLQQHKITD-OH
SMILES: CCCCCCCCCCCCCCCC(=O)NCCC(=O)NCCCC[C@H](NC(=O)[C@H](CC(=O)O)NC(=O)[C@H](CC(C)C)NC(=O)[C@@H](NC(=O)[C@@H](NC(=O)[C@H](C)NC(=O)[C@H](CC(C)C)NC(=O)[C@H](CCC(=O)O)NC(=O)[C@H](CO)NC(=O)[C@@H](NC(=O)[C@H](Cc1ccccc1)NC(=O)[C@H](CO)NC(=O)CNC(=O)[C@H](CCC(=O)O)NC(=O)C(C)(C)NC(=O)[C@@H](N)Cc1c[nH]cn1)[C@@H](C)O)[C@@H](C)O)[C@@H](C)CC)C(=O)N[C@@H](CCC(N)=O)C(=O)N[C@@H](C)C(=O)N[C@@H](C)C(=O)N[C@@H](CCCNC(=N)N)C(=O)N[C@@H](CC(=O)O)C(=O)N[C@@H](Cc1ccccc1)C(=O)N[C@H](C(=O)N[C@@H](C)C(=O)N[C@@H](Cc1c[nH]c2ccccc12)C(=O)N[C@@H](CC(C)C)C(=O)N[C@@H](CCC(N)=O)C(=O)N[C@@H](CCC(N)=O)C(=O)N[C@@H](Cc1c[nH]cn1)C(=O)N[C@@H](CCCCN)C(=O)N[C@H](C(=O)N[C@H](C(=O)N[C@@H](CC(=O)O)C(=O)O)[C@@H](C)O)[C@@H](C)CC)[C@@H](C)CC
Turning to B1, in assay [1], the “EC50 GLP-1 (nM), cAMP AlphaScreen” value is 0.38 nM. Further, the “EC50 GLP-2 (nM), cAMP AlphaScreen” value in assay [2] was determined as 0.46 nM.

B2: Compound 30 (peptide)
peptide: H-H[Aib]EGSFTSELATILDK([γGlu-C18 diacid])QAARDFIAWLIRHKITD-OH
SMILES: CC[C@H](C)[C@H](NC(=O)[C@H](Cc1ccccc1)NC(=O)[C@H](CC(=O)O)NC(=O)[C@H](CCCNC(=N)N)NC(=O)[C@H](C)NC(=O)[C@H](C)NC(=O)[C@H](CCC(N)=O)NC(=O)[C@H](CCCCNC(=O)CC[C@H](NC(=O)CCCCCCCCCCCCCCCCC(=O)O)C(=O)O)NC(=O)[C@H](CC(=O)O)NC(=O)[C@H](CC(C)C)NC(=O)[C@@H](NC(=O)[C@@H](NC(=O)[C@H](C)NC(=O)[C@H](CC(C)C)NC(=O)[C@H](CCC(=O)O)NC(=O)[C@H](CO)NC(=O)[C@@H](NC(=O)[C@H](Cc1ccccc1)NC(=O)[C@H](CO)NC(=O)CNC(=O)[C@H](CCC(=O)O)NC(=O)C(C)(C)NC(=O)[C@@H](N)Cc1c[nH]cn1)[C@@H](C)O)[C@@H](C)O)[C@@H](C)CC)C(=O)N[C@@H](C)C(=O)N[C@@H](Cc1c[nH]c2ccccc12)C(=O)N[C@@H](CC(C)C)C(=O)N[C@H](C(=O)N[C@@H](CCCNC(=N)N)C(=O)N[C@@H](Cc1c[nH]cn1)C(=O)N[C@@H](CCCCN)C(=O)N[C@H](C(=O)N[C@H](C(=O)N[C@@H](CC(=O)O)C(=O)O)[C@@H](C)O)[C@@H](C)CC)[C@@H](C)CC
Take B2: the “EC50 GLP-1 (nM), cAMP AlphaScreen” value in assay [1] was 0.31 nM. The “EC50 GLP-2 (nM), cAMP AlphaScreen” value in assay [2] came out at 0.38 nM.

B3: Compound 27 (peptide)
peptide: H-H[Aib]EGSFTSELATILDK([γGlu-C18 diacid])QAARDFIAWLIYHKITD-OH
SMILES: CC[C@H](C)[C@H](NC(=O)[C@H](Cc1ccccc1)NC(=O)[C@H](CC(=O)O)NC(=O)[C@H](CCCNC(=N)N)NC(=O)[C@H](C)NC(=O)[C@H](C)NC(=O)[C@H](CCC(N)=O)NC(=O)[C@H](CCCCNC(=O)CC[C@H](NC(=O)CCCCCCCCCCCCCCCCC(=O)O)C(=O)O)NC(=O)[C@H](CC(=O)O)NC(=O)[C@H](CC(C)C)NC(=O)[C@@H](NC(=O)[C@@H](NC(=O)[C@H](C)NC(=O)[C@H](CC(C)C)NC(=O)[C@H](CCC(=O)O)NC(=O)[C@H](CO)NC(=O)[C@@H](NC(=O)[C@H](Cc1ccccc1)NC(=O)[C@H](CO)NC(=O)CNC(=O)[C@H](CCC(=O)O)NC(=O)C(C)(C)NC(=O)[C@@H](N)Cc1c[nH]cn1)[C@@H](C)O)[C@@H](C)O)[C@@H](C)CC)C(=O)N[C@@H](C)C(=O)N[C@@H](Cc1c[nH]c2ccccc12)C(=O)N[C@@H](CC(C)C)C(=O)N[C@H](C(=O)N[C@@H](Cc1ccc(O)cc1)C(=O)N[C@@H](Cc1c[nH]cn1)C(=O)N[C@@H](CCCCN)C(=O)N[C@H](C(=O)N[C@H](C(=O)N[C@@H](CC(=O)O)C(=O)O)[C@@H](C)O)[C@@H](C)CC)[C@@H](C)CC
B3: the “EC50 GLP-1 (nM), cAMP AlphaScreen” value in assay [1] was determined as 0.45 nM. In addition, in assay [2], the “EC50 GLP-2 (nM), cAMP AlphaScreen” value came to 1.1 nM.

B4: Compound 31 (peptide)
peptide: H-H[Aib]EGSFTSELATILDK([γGlu-C18 diacid])QAARDFIAWLISHKITD-OH
SMILES: CC[C@H](C)[C@H](NC(=O)[C@H](Cc1ccccc1)NC(=O)[C@H](CC(=O)O)NC(=O)[C@H](CCCNC(=N)N)NC(=O)[C@H](C)NC(=O)[C@H](C)NC(=O)[C@H](CCC(N)=O)NC(=O)[C@H](CCCCNC(=O)CC[C@H](NC(=O)CCCCCCCCCCCCCCCCC(=O)O)C(=O)O)NC(=O)[C@H](CC(=O)O)NC(=O)[C@H](CC(C)C)NC(=O)[C@@H](NC(=O)[C@@H](NC(=O)[C@H](C)NC(=O)[C@H](CC(C)C)NC(=O)[C@H](CCC(=O)O)NC(=O)[C@H](CO)NC(=O)[C@@H](NC(=O)[C@H](Cc1ccccc1)NC(=O)[C@H](CO)NC(=O)CNC(=O)[C@H](CCC(=O)O)NC(=O)C(C)(C)NC(=O)[C@@H](N)Cc1c[nH]cn1)[C@@H](C)O)[C@@H](C)O)[C@@H](C)CC)C(=O)N[C@@H](C)C(=O)N[C@@H](Cc1c[nH]c2ccccc12)C(=O)N[C@@H](CC(C)C)C(=O)N[C@H](C(=O)N[C@@H](CO)C(=O)N[C@@H](Cc1c[nH]cn1)C(=O)N[C@@H](CCCCN)C(=O)N[C@H](C(=O)N[C@H](C(=O)N[C@@H](CC(=O)O)C(=O)O)[C@@H](C)O)[C@@H](C)CC)[C@@H](C)CC
Take B4: the “EC50 GLP-1 (nM), cAMP AlphaScreen” value in assay [1] stood at 0.27 nM. For the same molecule, the “EC50 GLP-2 (nM), cAMP AlphaScreen” value in assay [2] came to 0.24 nM.

B5: Compound 29 (peptide)
peptide: H-H[Aib]EGSFTSELATILDK([γGlu-C18 diacid])QAARDFIAWLIKHKITD-OH
SMILES: CC[C@H](C)[C@H](NC(=O)[C@H](Cc1ccccc1)NC(=O)[C@H](CC(=O)O)NC(=O)[C@H](CCCNC(=N)N)NC(=O)[C@H](C)NC(=O)[C@H](C)NC(=O)[C@H](CCC(N)=O)NC(=O)[C@H](CCCCNC(=O)CC[C@H](NC(=O)CCCCCCCCCCCCCCCCC(=O)O)C(=O)O)NC(=O)[C@H](CC(=O)O)NC(=O)[C@H](CC(C)C)NC(=O)[C@@H](NC(=O)[C@@H](NC(=O)[C@H](C)NC(=O)[C@H](CC(C)C)NC(=O)[C@H](CCC(=O)O)NC(=O)[C@H](CO)NC(=O)[C@@H](NC(=O)[C@H](Cc1ccccc1)NC(=O)[C@H](CO)NC(=O)CNC(=O)[C@H](CCC(=O)O)NC(=O)C(C)(C)NC(=O)[C@@H](N)Cc1c[nH]cn1)[C@@H](C)O)[C@@H](C)O)[C@@H](C)CC)C(=O)N[C@@H](C)C(=O)N[C@@H](Cc1c[nH]c2ccccc12)C(=O)N[C@@H](CC(C)C)C(=O)N[C@H](C(=O)N[C@@H](CCCCN)C(=O)N[C@@H](Cc1c[nH]cn1)C(=O)N[C@@H](CCCCN)C(=O)N[C@H](C(=O)N[C@H](C(=O)N[C@@H](CC(=O)O)C(=O)O)[C@@H](C)O)[C@@H](C)CC)[C@@H](C)CC
For the molecule B5, the “EC50 GLP-1 (nM), cAMP AlphaScreen” value in assay [1] was determined as 0.31 nM. Besides, in assay [2], the “EC50 GLP-2 (nM), cAMP AlphaScreen” value is 0.29 nM.

B6: Compound 28 (peptide)
peptide: H-H[Aib]EGSFTSELATILDK([γGlu-C18 diacid])QAARDFIAWLILHKITD-OH
SMILES: CC[C@H](C)[C@H](NC(=O)[C@H](Cc1ccccc1)NC(=O)[C@H](CC(=O)O)NC(=O)[C@H](CCCNC(=N)N)NC(=O)[C@H](C)NC(=O)[C@H](C)NC(=O)[C@H](CCC(N)=O)NC(=O)[C@H](CCCCNC(=O)CC[C@H](NC(=O)CCCCCCCCCCCCCCCCC(=O)O)C(=O)O)NC(=O)[C@H](CC(=O)O)NC(=O)[C@H](CC(C)C)NC(=O)[C@@H](NC(=O)[C@@H](NC(=O)[C@H](C)NC(=O)[C@H](CC(C)C)NC(=O)[C@H](CCC(=O)O)NC(=O)[C@H](CO)NC(=O)[C@@H](NC(=O)[C@H](Cc1ccccc1)NC(=O)[C@H](CO)NC(=O)CNC(=O)[C@H](CCC(=O)O)NC(=O)C(C)(C)NC(=O)[C@@H](N)Cc1c[nH]cn1)[C@@H](C)O)[C@@H](C)O)[C@@H](C)CC)C(=O)N[C@@H](C)C(=O)N[C@@H](Cc1c[nH]c2ccccc12)C(=O)N[C@@H](CC(C)C)C(=O)N[C@H](C(=O)N[C@@H](CC(C)C)C(=O)N[C@@H](Cc1c[nH]cn1)C(=O)N[C@@H](CCCCN)C(=O)N[C@H](C(=O)N[C@H](C(=O)N[C@@H](CC(=O)O)C(=O)O)[C@@H](C)O)[C@@H](C)CC)[C@@H](C)CC
In the case of B6, the “EC50 GLP-1 (nM), cAMP AlphaScreen” value in assay [1] came to 0.36 nM. Further, the “EC50 GLP-2 (nM), cAMP AlphaScreen” value in assay [2] came to 0.51 nM.
